Measured values as given in US8703915B2, “Mutant proteins and methods for producing them” (Heptares Therapeutics Limited, priority 2009, dated 2014).

Assays:
A2A receptor [1] = target: T1, A2A receptor (Homo sapiens, UniProt P29274); test: Thermostability of A2A receptor in ZM241385 antagonist-bound state, solubilised in DDM; assay type: physicochemical; settings: ZM antagonist bound state (100 nM)
T1 construct: A2AR-(2-316) expression was carried out by using the pRG/III-hs-MBP E. coli expression vector; MBP (named only in the vector name); made in house; host or cells: E. coli DH5alpha
Experimental: (§1) In order to stabilise an agonist-bound conformation, a systematic Alanine-scan was performed in order to identify mutations that may stabilise the A2A receptor bound to its full agonist NECA. In this A2A agonist-bound study, L2.46 (L48A) is the most stabilising single mutant. When NECA is bound to the solubilised receptor, removing the L48 side chain (in A2A-L48A) dramatically increases the thermostability of the ligand-receptor complex resulting in an increase of 14° C. over the wild type receptor in the detergent DDM (FIG. 5a). […] We evaluated the signalling property of the A2A receptor by over-expressing the receptor in CHO cells. A2A agonist stimulation triggers the signal transduction through the Gs-trimeric complex and increases the intracellular cAMP level. The increase in intracellular cAMP can be detected by and quantified by using an anti-cAMP Mab antibody competition assay. […] However the signalling efficacy is reduced to 30% (FIG. 6).
A2AR-(2-316) expression was carried out by using the pRG/III-hs-MBP E. coli expression vector and DH5α cells. Cells were grown at 37° C. in 2 L flasks containing 500 mL of 2×TY medium supplemented with Ampicillin (100 μg/mL) and glucose (0.2% w/v). At OD600≈0.7, IPTG and theophylline were added at final concentrations respectively of 0.5 mM and 100 μM, and the temperature was reduced to 20° C. […]

A2A receptor [2] = test: cAMP functional assay (HTRF), NECA stimulation of CHO cells over-expressing A2A receptor; assay type: cell-based, human; settings: intracellular cAMP, CHO cells
Experimental: as §1
This assay takes advantage of Homogeneous Time-Resolved Fluorescence (HTRF) using cAMP labeled with the dye d2 in presence of an anti-cAMP Mab labeled with Cryptate. The method is based on a competitive immunoassay between cAMP produced by cells and the cAMP labeled with the dye d2. CHO cells were grown using Glutamax Ham's F12, 10% FBS in 96-well plates, clear bottom and Black wall (Costar). Cells were seeded at a density of 12500 cells per well, grown overnight, washed with PBS and then transfected with 100 ng of pcDNA-3-A2A(2-316) pre-incubated with 0.3 μL of GeneJuice (Novagen) per well. After 48 hours of receptor expression, the medium was removed, the cells were washed in PBS then stimulated by using different NECA concentrations, in the presence of Rolipram (50 μM) and Adenosine deaminase in a total volume of 50 μL for 30 minutes. Dilution was realised in Hamf's F12/cAMP-d2 conjugate according to the manufacturer protocol, without serum. […] The plate was incubated at room temperature for 1 hour and then read using the Pherastar 96-well time-resolved fluorescence plate reader (Ex 340 nm; Em 665/620 nm).

adenosine A2A receptor = test: Antagonist binding to adenosine A2A NPxxY motif alanine mutants (Table 1); parameters: species or system human
Experimental: An alanine scan was carried out in a similar fashion on an adenosine A2A receptor along with the 5HT2C receptor in the presence of the antagonist Mesulergine. Both alanine scans were carried out in order to further stabilize the antagonist conformation. […] The motif in Adenosine A2A is NPFIY (SEQ ID NO: 364) and for the 5HT2C is NPLVY (SEQ ID NO: 363). Therefore mutations in this region of the receptor contain stabilising mutations specific to the agonist conformation and detrimentally effect antagonist binding.
Adenosine A2A receptor was solubilised from transiently transfected mammalian cells about 36 hours post transfection, in 50 mM Tris pH7.4/400 mM NaCl/0.5% DDM and protease inhibitor. Cell lysates were left at 4° C. on a rotator and then cleared by centrifugation at 13,200 rpm for 20 minutes at 4° C. Solubilised receptors were then purified on Ni-NTA beads and eluted with 50 mM histidine. The eluted receptor was used in radioligand binding assay. The Tm was determined by incubating 108 μl of the eluate with Zm241385 radioligand at a final concentration of 100 nM for one hour at 4° C. The six ligand incubations are then incubated at six different temperatures from 20° C. to 50° C., for thirty minutes. Receptor bound and free radioligand were separated using G25 Sephadex spin columns.

A2A receptor [3] = test: Thermostability of A2A receptor in NECA agonist-bound state, solubilised in DDM; assay type: physicochemical, human; settings: NECA agonist-bound state (400 nM), solubilised in DDM
Experimental: as §1
A2AR-(2-316) expression was carried out by using the pRG/III-hs-MBP E. coli expression vector and DH5α cells. Cells were grown at 37° C. in 2 L flasks containing 500 mL of 2×TY medium supplemented with Ampicillin (100 μg/mL) and glucose (0.2% w/v). At OD600≈0.7, IPTG and theophylline were added at final concentrations respectively of 0.5 mM and 100 μM, and the temperature was reduced to 20° C. After 22 to 24 hours, cells were harvested in aliquots of 14 mL, centrifuged for 30 min and stored at −20° C. Both 5HT2C and M4 receptors were transiently expressed in HEK293T cells using GeneJuice transfection reagent used according to the manufacturers guidelines.
An aliquot of E. coli cells expressing wild type or mutant A2AR-(2-316) (14 mL) was thawed on ice and cells were resuspended in 500 μL of buffer A (50 mM Tris HCl mM/pH 7.4; 0.4 M NaCl, 250 μg/mL lysozyme (Sigma), 1 mg/mL DNAse I (Sigma), supplemented with complete EDTA-free Protease inhibitor cocktail (Roche)) and incubated 1 hour at 4° C. Samples were then sonicated 1 min at 4° C. using a cup-horn sonicator. […]

B1: A2A-WT: wild type human adenosine A2A receptor, A2AR-(2-316) (protein, UniProt P29274 2-316, looked up, fragment)
chain: PIMGSSVYITVELAIAVLAILGNVLVCWAVWLNSNLQNVTNYFVVSLAAADIAVGVLAIPFAITISTGFCAACHGCLFIACFVLVLTQSSIFSLLAIAIDRYIAIRIPLRYNGLVTGTRAKGIIAICWVLSFAIGLTPMLGWNNCGQPKEGKNHSQGCGEGQVACLFEDVVPMNYMVYFNFFACVLVPLLLMLGVYLRIFLAARRQLKQMESQPLPGERARSTLQKEVHAAKSLAIIVGLFALCWLPLHIINCFTFFCPDCSHAPLWLMYLAIVLSHTNSVVNPFIYAYRIREFRQTFRKIIRSHVLRQQEPFKA
Tm (A2A receptor [1]): 33.0±0.7 °C | pEC50 (A2A receptor [2]): 7.27±0.19 | % of Wildtype binding (adenosine A2A receptor; antagonist binding): 100% | DPM1 (adenosine A2A receptor; antagonist binding, replicate 1): 13513 DPM | DPM2 (adenosine A2A receptor; antagonist binding, replicate 2): 12949 DPM | Average - BG (adenosine A2A receptor; average minus background): 12731 | Average (adenosine A2A receptor; average of DPM1 and DPM2): 13231 | Tm (A2A receptor [3]): 28.7±0.5 °C
